The source of these data is ChEMBL document CHEMBL1157152, “Kinetic parameters and recognition of thymidine analogues with varying functional groups by thymidine phosphorylase” (Bioorg Med Chem, 2008).

In general, Km refers to the concentration of substrate that gives half-maximal velocity. One may read the Vmax as the rate approached at saturating substrate.

Substrate in data set [1]: Cc1cn([C@H]2C[C@H](O)[C@@H](CO)O2)c(=O)[nH]c1=O
The experiment in a line: (§1) Activity of Escherichia coli thymidine phosphorylase.

Substrate in data set [2]: Cc1cn([C@H]2CC[C@@H](CO)O2)c(=O)[nH]c1=O
The description is as §1.

Substrate in data set [3]: Cc1cn([C@H]2C[C@H](O)[C@@H](C)O2)c(=O)[nH]c1=O
The data set is described as §1.

B1: Thymidine phosphorylase (Escherichia coli K-12), P07650 (protein)
chain: MFLAQEIIRKKRDGHALSDEEIRFFINGIRDNTISEGQIAALAMTIFFHDMTMPERVSLTMAMRDSGTVLDWKSLHLNGPIVDKHSTGGVGDVTSLMLGPMVAACGGYIPMISGRGLGHTGGTLDKLESIPGFDIFPDDNRFREIIKDVGVAIIGQTSSLAPADKRFYATRDITATVDSIPLITASILAKKLAEGLDALVMDVKVGSGAFMPTYELSEALAEAIVGVANGAGVRTTALLTDMNQVLASSAGNAVEVREAVQFLTGEYRNPRLFDVTMALCVEMLISGKLAKDDAEARAKLQAVLDNGKAAEVFGRMVAAQKGPTDFVENYAKYLPTAMLTKAVYADTEGFVSEMDTRALGMAVVAMGGGRRQASDTIDYSVGFTDMARLGDQVDGQRPLAVIHAKDENNWQEAAKAVKAAIKLADKAPESTPTVYRRISE
Regarding B1, the Km in data set [1] stood at 2.5 mM; in data set [2] it was 32 mM; in data set [3], 10 mM. Besides, the figures for the Vmax in data set [1], in data set [2] and in data set [3] were 5.2 mM/min, 0.014 mM/min and 3.4 mM/min, respectively.
